US8685655B2, “Dissociation method and dissociation agent for avidin and biotin derivatives” (JSR Corporation, priority 2009, dated 2014)

Assays:
[1] = molecular target: T1, streptavidin magnetic particles-desthiobiotin-bound probe molecules-target substance complex (Streptomyces avidinii, UniProt P22629); test: Dissociation efficiency: target cells released from the capturing carrier by the dissociation agent (quantitative PCR cell count); conditions: 250 μL dissociation agent liquid in PBS, room temperature, 20 minutes; HT-29 cells isolated / cells bound x 100
T1 construct: purchased Invitrogen Dynabeads M-280 Streptavidin
T1 sequence (P22629 25-183, one chain of several): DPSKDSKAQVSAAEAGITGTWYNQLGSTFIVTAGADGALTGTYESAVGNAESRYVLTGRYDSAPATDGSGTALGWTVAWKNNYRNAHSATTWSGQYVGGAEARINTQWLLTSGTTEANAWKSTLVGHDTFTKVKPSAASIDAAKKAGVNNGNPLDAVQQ
Experimental: The number of cells was determined by measuring the quantity of genome DNA according to the quantitative PCR method.
(1) Measurement of the Number of Cells Bound to the Capturing Carrier:
50 μL of 0.8 mg/mL solution of proteinase K (protease, manufactured by Qiagen N.V.) dissolved in 10-mM Tris-HCl buffer solution (pH: 8.3) was added to the total amount of the combination of the capturing carrier and the target cells yielded in the below Examples and Comparative Example, and the resultant was reacted by heating at 55° C. for 15 minutes to elute DNA. Subsequently, this solution was heated at 95° C. for 20 minutes to inactivate proteinase K. 20 μL of the resultant DNA solution was added to 30 μL of a quantitative PCR cocktail (Fast Start Taq, manufactured by Roche (Co.)) to carry out quantitative PCR. Other DNA solutions prepared by the same method using predetermined number of cells were used to prepare a calibration curve. A 7500 Real-Time PCR System, manufactured by Applied Biosystems (Co.), was used for the quantitative PCR.
(2) Measurement of the Number of Cells Isolated from the Capturing Carrier: […]
The efficiency of dissociation of (strept) avidin from the biotin derivative was determined according to the following equation: Efficiency of Dissociation (%)=“the number of the cells isolated from the capturing carrier”/“the number of the cells bound to the capturing carrier”×100
1 mg aliquots of the capturing carrier yielded in Preparation Example 2 were added into test tubes. […] The number of the cells bound to the isolated capturing carrier was measured, and the number was 8,500, which was 85% of the number of the cells used for the Example. […]

avidin = avidin (Gallus gallus, UniProt P02701); conditions: cited from earlier work
Sequence of avidin (P02701 25-152, species assumed): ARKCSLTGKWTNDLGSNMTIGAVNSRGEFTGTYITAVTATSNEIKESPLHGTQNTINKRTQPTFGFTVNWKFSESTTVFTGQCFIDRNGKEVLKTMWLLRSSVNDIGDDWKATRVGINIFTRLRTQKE

Compound | Dissociation efficiency (%) [1] [%] | binding constant with avidin (avidin)
BSA-Biotin6: dissociation agent in which six (6) in average of biotin were bound to one molecule of BSA | 70 | 
BSA-Biotin10: dissociation agent in which ten (10) in average of biotin were bound to one molecule of BSA | 96 | 
O=C(O)CCCC[C@@H]1SC[C@@H]2NC(=O)N[C@@H]21 [Biotin, biotin] | 3 | 10^15 M
